US20230416361A1 (MIROBIO, published 2023)
Where a chain is given by its changes, count along the chain named. Names may count otherwise.

B1: anti-CD200R antibody clone 26.1.2 (mIgG1k isotype) (antibody, V domains shown)
VH: EVQLQQSGPELVKPGASVKMSCKASGYTFTSYVMHWVKQKPGQGLEWIGYIHPYNDDIKHNEKFKDKATLTSAKSSSTVYMELSSLTSEDSAVYYCAREEYYGSRFAYWGQGTLVTVSA
VL: DIVLTQSPASLAVSLGQRATISCRASKSVRTSGYSYLHWYQQKPGQPPKLLIYLASNLESGVPARFSGSGSGTDFTLNIHPVEEEDAATYYCQYSGELPFTFGGGTKLEIKR
notes: Murine hybridoma antibody, IgG1 kappa
B2: hu2131_v8 (antibody, human IgG1, V domains shown)
VH: QVQLVQSGAEVKKPGASVKLSCKASGHTFTSYWMHWVKQAPGQGLEWIGNIYPGSGSINYDEKFQGRATLTVDTSTRTAYMELSSLRSEDTAVYYCLTMTGTSWGRGTLVTVSS
VL: DVQMTQSPSSLSVSVGDRVTITCQASQGTPINLHWFQQKPGKAPKLLISGASNLEDGVPSRFSGSRYGTDFTFTISSLQPEDIATYFCLQFTYIPWTFGQGTKLEIK
notes: Expressed as human IgG1 with P238D Fc mutation
B3: hu2131_v1 (antibody, human IgG1, V domains shown)
VH: B2 VH with A9S, V11L, T91S
VL: B2 VL with I21M, D70A, F73L, P80D
notes: as for B2
B4: hu2131_v2 (antibody, human IgG1, V domains shown)
VH: B2 VH with A9S, V11L, T91S
VL: B2 VL with I21M, D70A, F73L
notes: as for B2
B5: hu2131_v3 (antibody, human IgG1, V domains shown)
VH: B2 VH with A9S, V11L, T91S
VL: B2 VL
notes: as for B2
B6: hu2131_v4 (antibody, human IgG1, V domains shown)
VH: B2 VH with A9S, V11L, T91S
VL: B2 VL with V2I, R66G, Y67S, F87Y
notes: as for B2
B7: hu2131_v5 (antibody, human IgG1, V domains shown)
VH: B2 VH with A9S, V11L, T91S
VL: B2 VL with V2I, R66G, Y67S, D70E, I83A, F87Y
notes: as for B2
B8: hu2131_v6 (antibody, human IgG1, V domains shown)
VH: B2 VH
VL: B2 VL with I21M, D70A, F73L, P80D
notes: as for B2
B9: hu2131_v7 (antibody, human IgG1, V domains shown)
VH: B2 VH
VL: B2 VL with I21M, D70A, F73L
notes: as for B2
B10: hu2131_v9 (antibody, human IgG1, V domains shown)
VH: B2 VH
VL: B2 VL with V2I, R66G, Y67S, F87Y
notes: as for B2
B11: hu2131_v10 (antibody, human IgG1, V domains shown)
VH: B2 VH
VL: B2 VL with V2I, R66G, Y67S, D70E, I83A, F87Y
notes: as for B2
B12: hu2131_v11 (antibody, human IgG1, V domains shown)
VH: B2 VH with L20V, K38R, A68V, L70M, R77S
VL: B2 VL with I21M, D70A, F73L, P80D
notes: as for B2
B13: hu2131_v12 (antibody, human IgG1, V domains shown)
VH: B2 VH with L20V, K38R, A68V, L70M, R77S
VL: B2 VL with I21M, D70A, F73L
notes: as for B2
B14: hu2131_v13 (antibody, human IgG1, V domains shown)
VH: B2 VH with L20V, K38R, A68V, L70M, R77S
VL: B2 VL
notes: as for B2
B15: hu2131_v14 (antibody, human IgG1, V domains shown)
VH: B2 VH with L20V, K38R, A68V, L70M, R77S
VL: B2 VL with V2I, R66G, Y67S, F87Y
notes: as for B2
B16: hu2131_v15 (antibody, human IgG1, V domains shown)
VH: B2 VH with L20V, K38R, A68V, L70M, R77S
VL: B2 VL with V2I, R66G, Y67S, D70E, I83A, F87Y
notes: as for B2
B17: hu2131_v16 (antibody, human IgG1, V domains shown)
VH: B2 VH with L20V, K38R, I48M, A68V, L70M, V72A, R77S, A79V
VL: B2 VL with I21M, D70A, F73L, P80D
notes: as for B2
B18: hu2131_v17 (antibody, human IgG1, V domains shown)
VH: B2 VH with L20V, K38R, I48M, A68V, L70M, V72A, R77S, A79V
VL: B2 VL with I21M, D70A, F73L
notes: as for B2
B19: hu2131_v18 (antibody, human IgG1, V domains shown)
VH: B2 VH with L20V, K38R, I48M, A68V, L70M, V72A, R77S, A79V
VL: B2 VL
notes: as for B2
B20: hu2131_v19 (antibody, human IgG1, V domains shown)
VH: B2 VH with L20V, K38R, I48M, A68V, L70M, V72A, R77S, A79V
VL: B2 VL with V2I, R66G, Y67S, F87Y
notes: as for B2
B21: anti-CD200R antibody clone 2.2.7 (mIgG1k isotype) (antibody, V domains shown)
VH: QVQLKESGPGLVAPSQSLSITCTVSGFSLTSYGVHWVRQLPGKGLEWLGVIWAGGGTNYNSALMSRLSISKDNSKSQVFLKMNRLQTDDTAIYYCAREGLPRAMDYWGQGTSVTVSS
VL: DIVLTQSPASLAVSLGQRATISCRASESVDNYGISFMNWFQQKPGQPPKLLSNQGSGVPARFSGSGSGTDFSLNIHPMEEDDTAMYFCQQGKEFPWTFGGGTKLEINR
notes: as for B1
B22: Antibody I-4P (antibody, human IgG4 S228P, kappa, V domains shown)
VH: QVQLVQSGAEVKKPGASVKVSCKASGFSFSSGYYMAWVRQAPGQGLEWMGLIGVGSGSLWYAQKFQGRVTMTRDTSTSTVYMELSSLRSEDTAVYYCARHFALSDPFNLWGQGTLVTVSS
VL: EIVLTQSPDFQSVTPKEKVTITCQASESIDSYLLWYQQKPDQSPKLLIKQASTLASGVPSRFSGSGSGTDFTLTINSLEAEDAATYYCQNYYDISSNDFGGGTKVEIKR
notes: also called AbI-4P; J-4P
B23: Antibody hu2131_Q1E hIgG1k P238D (antibody)
heavy: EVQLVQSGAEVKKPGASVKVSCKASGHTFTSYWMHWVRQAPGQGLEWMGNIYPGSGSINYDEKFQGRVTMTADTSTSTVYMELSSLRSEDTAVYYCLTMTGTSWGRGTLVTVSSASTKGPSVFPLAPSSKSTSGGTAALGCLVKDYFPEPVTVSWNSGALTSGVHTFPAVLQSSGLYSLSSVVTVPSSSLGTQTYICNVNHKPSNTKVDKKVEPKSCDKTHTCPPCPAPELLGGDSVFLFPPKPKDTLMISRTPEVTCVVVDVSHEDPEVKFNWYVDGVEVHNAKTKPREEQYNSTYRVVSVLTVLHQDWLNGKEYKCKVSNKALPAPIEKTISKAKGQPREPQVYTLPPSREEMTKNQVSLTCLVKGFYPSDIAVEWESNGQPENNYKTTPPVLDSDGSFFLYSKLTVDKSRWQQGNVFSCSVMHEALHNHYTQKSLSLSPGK
light: DIQMTQSPSSLSVSVGDRVTITCQASQGTPINLHWFQQKPGKAPKLLISGASNLESGVPSRFSGSGSGTEFTFTISSLQPEDAATYYCLQFTYIPWTFGQGTKLEIKRTVAAPSVFIFPPSDEQLKSGTASVVCLLNNFYPREAKVQWKVDNALQSGNSQESVTEQDSKDSTYSLSSTLTLSKADYEKHKVYACEVTHQGLSSPVTKSFNRGEC

Tests used:
[1] = target: T1, soluble cynomolgus macaque CD200R1 extracellular domain (cynomolgus macaque, UniProt G7NZT0 29-266); test: SPR, captured antibody, soluble monomeric receptor injected, single cycle kinetics, 37 C
T1 construct: extracellular domain; also called Cynomolgus CD200R
T1 sequence: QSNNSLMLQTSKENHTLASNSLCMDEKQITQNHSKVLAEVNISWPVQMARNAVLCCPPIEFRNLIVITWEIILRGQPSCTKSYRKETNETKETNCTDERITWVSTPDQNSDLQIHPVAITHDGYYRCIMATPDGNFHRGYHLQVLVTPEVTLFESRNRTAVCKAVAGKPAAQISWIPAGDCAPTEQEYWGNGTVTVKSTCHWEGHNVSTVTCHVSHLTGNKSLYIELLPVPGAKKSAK
Protocol: (§1) The binding affinity and kinetics of the CD200R antibodies of the present disclosure to human or cynomolgus CD200R were determined by surface plasmon resonance (SPR) using the Biacore T200 (GE Healthcare). Mouse antibody capture kit (GE Healthcare) was used to coat a Series S CM5 Sensor Chip (GE Healthcare) with polyclonal anti-mouse IgG.
(§2) Anti-CD200R antibody was captured onto the biosensor surface and a negative control antibody (clone Mopc21; Biolegend) captured in the reference channel. Various concentrations of monomeric soluble human CD200R extracellular domain, soluble cynomolgus macaque CD200R1 extracellular domain or soluble cynomolgus macaque CD200RLa (a highly homologous activating receptor) were injected over the immobilized antibodies in the buffer 10 mM Hepes, 150 mM NaCl, 0.005% v/v Surfactant P20, pH 7.4 (HBS-P) at 37° C., in a single cycle kinetics analysis. Association and dissociation rates were fitted using BiaEvaluation Software (GE Healthcare) after reference and blank subtractions, and dissociation constants were calculated (Table 2).

[2] = target: T2, monomeric soluble human CD200R extracellular domain (human, UniProt Q8TD46 29-265); test: as above
T2 construct: extracellular domain; also called hCD200R; monomeric CD200R protein
T2 sequence (looked up): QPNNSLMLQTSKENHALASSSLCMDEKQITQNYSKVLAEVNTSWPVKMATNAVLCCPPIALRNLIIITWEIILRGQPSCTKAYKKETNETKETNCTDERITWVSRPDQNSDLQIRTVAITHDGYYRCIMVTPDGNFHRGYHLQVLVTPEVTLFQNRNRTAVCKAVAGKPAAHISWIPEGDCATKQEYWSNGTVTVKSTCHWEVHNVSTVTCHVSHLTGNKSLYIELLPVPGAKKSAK
Protocol: as §1, §2

[3] = target: T2, monomeric soluble human CD200R …; test: BLI (Octet), antibody on anti-human Fc probes, monomeric CD200R in solution, 25 C, 1:1 global fit
Protocol: Humanised variant antibodies combining the different heavy and light variable domains described in Example 6 were produced by transient transfection of HEK293 cells. All antibodies were expressed on a human IgGI isotype with a P238D Fc mutation. The unpurified supernatants were analysed by Protein A-HPLC to determine the antibody concentrations, as a measure of expression yield. […] Binding affinity of humanized variants to human CD200R was assessed by bio-layer interferometry on an Octet R4 instrument. Each antibody was captured directly onto anti-human Fc capture probes (Sartorius 18-5060) for 60 sec followed by baseline setting in assay buffer (DPBS, 0.01% Polysorbate-20). Association of monomeric CD200R protein to immobilised antibodies was measured in 4 different protein concentrations (300, 100, 30 and 10 nM in assay buffer) at 25° C., with an association time of 120s and dissociation of 120s in assay buffer only. A reference probe with no antibody immobilised was used for background subtraction. Kinetic rate constants and binding KDs were calculated using Octet Analysis Studio 12 software. Global curve fitting based on all 4 concentrations using a 1:1 model was performed, from which kon and koff were obtained to calculate KD using the relationship KD=koff/kon.

[4] = target: T3, extracellular domain of cyno CD200R (SinoBiological 11232-C08H, Met1-Leu267) (cynomolgus, UniProt G7NZT0 25-268); test: SPR (Biacore), antibody captured by anti-human Fc, CD200R extracellular domain injected, single cycle kinetics, 25 C
T3 construct: range 1-267; Bought protein
T3 sequence: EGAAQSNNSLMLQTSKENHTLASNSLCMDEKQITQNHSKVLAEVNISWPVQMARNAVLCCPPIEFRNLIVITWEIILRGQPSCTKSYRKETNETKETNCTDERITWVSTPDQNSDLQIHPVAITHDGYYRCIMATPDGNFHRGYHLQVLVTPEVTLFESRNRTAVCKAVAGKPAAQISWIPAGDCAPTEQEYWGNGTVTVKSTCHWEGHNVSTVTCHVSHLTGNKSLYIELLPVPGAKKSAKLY
Protocol: This example investigates in vitro CD200R binding of anti-CD200R antibodies by surface plasmon resonance. Surface plasmon resonance binding experiments with purified anti-CD200R antibody (expressed on a hIgG1 isotype with a P238D Fc mutation) were performed using the Biacore T200 and 8K+instruments. Anti-human Fc antibody (Life Technologies H10500) was amine-coupled to a C1 sensor chip using standard amine-coupling chemistry. Residual activated carboxyls were blocked with ethanolamine. Antibodies with a human Fc were then captured on these surfaces.
To assess the binding of hu2131_v20_D56S antibody and variants (antibody hu213l_Q1E and antibody hu2131_Q1E_M99G) to the extracellular domains of human CD200R (Met29-Leu243) and cyno CD200R (SinoBiological 11232-C08H, Metl-Leu267), 10-30 RUs of antibody were captured. CD200R proteins were diluted into running buffer (10 mM HEPES, 150 mM NaCl, 3 mM EDTA, 0.01% Polysorbate 20, pH 7.4 with 0.1 mg/mL BSA) (full-length antibody sequences are disclosed in Table 10). Five three-fold serial dilutions were performed for each CD200R, with highest concentration being 100 nM. Samples were injected using a single cycle kinetics scheme (Karlsson Anal Biochem et al 2006). Data were analyzed using Biacore Insight Evaluation Software and fit to a simple kinetic model, from which kon and koff were obtained to calculate KD using the relationship KD=koff/kon. Experiments were run at 25° C.

Binder | Kd [3] | other results
B1 |  | Kd [1]: 60000 pM; Kd [2]: 700 pM
B2 | 3.18 pM | 
B3 | 3.63 pM | 
B4 | 3.84 pM | 
B5 | 3.88 pM | 
B6 | 2.74 pM | 
B7 | 5 pM | 
B8 | 3.96 pM | 
B9 | 3.06 pM | 
B10 | 3.07 pM | 
B11 | 4.43 pM | 
B12 | 2.45 pM | 
B13 | 4.14 pM | 
B14 | 2.94 pM | 
B15 | 2.9 pM | 
B16 | 3.18 pM | 
B17 | 1.03 pM | 
B18 | 183 pM | 
B19 | 34.4 pM | 
B20 | 4.23 pM | 
B21 |  | Kd [1]: 159000 pM; Kd [2]: 27600 pM
B22 | 2160 pM | 
B23 |  | Kd [4]: ≤ 39.2 pM; koff [4]: ≤ 1e-05 s⁻¹; kon [4]: 255000 M⁻¹ s⁻¹
